The assay has as its target Taxol-stabilized microtubules from bovine tubulin, labeled with Alexa Fluor 488 and biotin, tethered to a … (bovine, UniProt Q6B856 1-445, part of the tubulin biotinylated, part labeled with Alexa Fluor 488 (10% biotin-tubulin and 10% Alexa 488-tubulin) | part of the tubulin biotinylated, part labeled with Alexa Fluor 488 (10% …)).

Chain of Taxol-stabilized microtubules from bovine tubulin, labeled with Alexa Fluor 488 and biotin, tethered to a … (chain, as listed by the source, chain 1 of 2): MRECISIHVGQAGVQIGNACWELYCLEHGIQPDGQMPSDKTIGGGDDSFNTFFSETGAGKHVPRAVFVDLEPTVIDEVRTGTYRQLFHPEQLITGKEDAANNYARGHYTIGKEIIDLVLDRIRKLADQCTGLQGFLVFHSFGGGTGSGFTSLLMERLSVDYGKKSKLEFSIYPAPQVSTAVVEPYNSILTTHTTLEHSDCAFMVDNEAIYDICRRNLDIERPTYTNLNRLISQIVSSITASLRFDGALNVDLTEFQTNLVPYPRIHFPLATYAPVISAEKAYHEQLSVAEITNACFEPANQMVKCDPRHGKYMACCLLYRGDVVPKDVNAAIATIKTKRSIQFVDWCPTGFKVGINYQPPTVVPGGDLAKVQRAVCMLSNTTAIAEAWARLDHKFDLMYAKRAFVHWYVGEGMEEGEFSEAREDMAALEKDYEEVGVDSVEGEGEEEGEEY
Chain of Taxol-stabilized microtubules from bovine tubulin, labeled with Alexa Fluor 488 and biotin, tethered to a … (Q6B856 whole entry, chain 2 of 2): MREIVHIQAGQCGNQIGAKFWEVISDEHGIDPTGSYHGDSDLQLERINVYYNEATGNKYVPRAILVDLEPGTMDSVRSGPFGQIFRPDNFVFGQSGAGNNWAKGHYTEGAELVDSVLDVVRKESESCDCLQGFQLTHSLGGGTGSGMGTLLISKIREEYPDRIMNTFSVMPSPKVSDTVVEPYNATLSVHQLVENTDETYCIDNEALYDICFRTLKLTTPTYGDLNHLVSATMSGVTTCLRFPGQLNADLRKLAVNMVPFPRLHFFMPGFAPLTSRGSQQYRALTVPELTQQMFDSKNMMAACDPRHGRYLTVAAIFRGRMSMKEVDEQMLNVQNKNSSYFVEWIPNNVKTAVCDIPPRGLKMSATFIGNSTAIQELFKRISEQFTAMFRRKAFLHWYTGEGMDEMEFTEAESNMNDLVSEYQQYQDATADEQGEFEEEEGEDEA

B1: TMR-LRRK2^RCKW (LRRK2^RCKW randomly labeled with BODIPY TMR-X) (domain or fragment)
chain: KKAVPYNRMKLMIVGNTGSGKTTLLQQLMKTKKSDLGMQSATVGIDVKDWPIQIRDKRKRDLVLNVWDFAGREEFYSTHPHFMTQRALYLAVYDLSKGQAEVDAMKPWLFNIKARASSSPVILVGTHLDVSDEKQRKACMSKITKELLNKRGFPAIRDYHFVNATEESDALAKLRKTIINESLNFKIRDQLVVGQLIPDCYVELEKIILSERKNVPIEFPVIDRKRLLQLVRENQLQLDENELPHAVHFLNESGVLLHFQDPALQLSDLYFVEPKWLCKIMAQILTVKVEGCPKHPKGIISRRDVEKFLSKKRKFPKNYMSQYFKLLEKFQIALPIGEEYLLVPSSLSDHRPVIELPHCENSEIIIRLYEMPYFPMGFWSRLINRLLEISPYMLSGRERALRPNRMYWRQGIYLNWSPEAYCLVGSEVLDNHPESFLKITVPSCRKGCILLGQVVDHIDSLMEEWFPGLLEIDICGEGETLLKKWALYSFNDGEEHQKILLDDLMKKAEEGDLLVNPDQPRLTIPISQIAPDLILADLPRNIMLNNDELEFEQAPEFLLGDGSFGSVYRAAYEGEEVAVKIFNKHTSLRLLRQELVVLCHLHHPSLISLLAAGIRPRMLVMELASKGSLDRLLQQDKASLTRTLQHRIALHVADGLRYLHSAMIIYRDLKPHNVLLFTLYPNAAIIAKIADYGIAQYCCRMGIKTSEGTPGFRAPEVARGNVIYNQQADVYSFGLLLYDILTTGGRIVEGLKFPNEFDELEIQGKLPDPVKEYGCAPWPMVEKLIKQCLKENPQERPTSAQVFDILNSAELVCLTRRILLPKNVIVECMVATHHNSRNASIWLGCGHTDRGQLSFLDLNTEGYTSEEVADSRILCLALVHLPVEKESWIVSGTQSGTLLVINTEDGKKRHTLEKMTDSVTCLYCNSFSKQSKQKNFLLVGTADGKLAIFEDKTVKLKGAAPLKILNIGNVSTPLMCLSESTNSTERNVMWGGCGTKIFSFSNDFTIQKLIETRTSQLFSYAAFSDSNIITVVVDTALYIAKQNSPVVEVWDKKTEKLCGLIDCVHFLREVMVKENKESKHKMSYSGRVKTLCLQKNTALWIGTGGGHILLLDLSTRRLIRVIYNFCNSVRVMMTAQLGSLKNVMLVLGYNRKNTEGTQKQKEIQSCLTVWDINLPHEVQNLEKHIEVRKELAEKMRRTSVE
modifications: BODIPY TMR-X on primary amines, randomly labeled (dye added 1:1)
Broadly, the Kd is a measure of binding affinity in units of concentration. A higher Kd goes with lower affinity. The molecule B1 came in with an equilibrium dissociation constant (Kd) of approximately 40 nM.

The values above are taken from PMC9758056 (2022).
